Experiment [1] deals with HIV-1 Env NE1 Q563R (HIV-1 (clade B, individual 653116)).
In experiment [2] the target is HIV-1 Env E1 R563Q (HIV-1 (clade B, individual 653116)).

Consider HIV-1 IIIB C34 Peptide, for which the IC50 of inhibition of infection of TZM-bl cells by pseudovirus (luciferase) is 0.04 µg/mL in experiment [1] and 0.6 µg/mL in experiment [2].

Source of the values: PMC7241850.
